Positions count from the first letter of the chain named. In names and notes the source's numbering stands.
T1: SNX5^PX (PX domain of SNX5) (human, UniProt Q9Y5X3 25-172)
T1 construct: PX domain of sorting nexin 5 (SNX5), human; also called SNX5^PX domain; isolated PX domain; source: E. coli BL21 (DE3), purified (Ni-NTA, TEV cleavage, ion exchange, SEC); not shown: His6-MBP, N-terminal, cleaved
T1 sequence (looked up): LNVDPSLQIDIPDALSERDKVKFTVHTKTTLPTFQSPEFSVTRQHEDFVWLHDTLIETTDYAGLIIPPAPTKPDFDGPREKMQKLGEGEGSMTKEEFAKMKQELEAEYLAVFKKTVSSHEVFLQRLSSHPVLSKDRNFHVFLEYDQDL

B1: SUMO-CI-MPR_(2330–2491) (entire cytosolic tail domain of CI-MPR) (domain or fragment, UniProt P11717 2330-2491, looked up)
chain: ERRETVISKLTTCCRRSSNVSYKYSKVNKEEETDENETEWLMEEIQLPPPRQGKEGQENGHITTKSVKALSSLHGDDQDSEDEVLTIPEVKVHSGRGAGAESSHPVRNAQSNALQEREDDRVGLVRGEKARKGKSSSAQQKTVSSTKLVSFHDDSDEDLLHI
notes: cation-independent mannose-6-phosphate receptor (CI-MPR), cytosolic tail, residues 2330-2491; also called CI-MPR tail domain; cytoplasmic domain of the CI-MPR; source: E. coli Rosetta (DE3), purified; not shown: His6-SUMO3, N-terminal, kept
B2: CI-MPR_(2330–2491) cytosolic tail with an N-terminal cysteine, cross-linked to liposomes (domain or fragment, UniProt P11717 2330-2491, looked up)
chain: B1 chain
modifications: N-terminal cysteine cross-linked to maleimide-functionalized lipid (DSPE-Mal) on liposomes
notes: cation-independent mannose-6-phosphate receptor (CI-MPR), cytosolic tail, residues 2330-2491; also called CI-MPR tail; source: E. coli Rosetta (DE3), purified, conjugated to DSPE-Mal liposomes; not shown: Cys (added for chemical cross-linking), N-terminal, kept
B3: CI-MPR_(2347–2375) peptide (bipartite sorting motif of the cation-independent mannose-6-phosphate receptor tail) (peptide, UniProt P11717 2347-2375, looked up)
peptide: SNVSYKYSKVNKEEETDENETEWLMEEIQ
notes: Called a peptide in the ITC methods; also called shorter CI-MPR tail segment
B4: SNX5 (4 mut)^‡ (Y219A, M233A, V240A, R368A) (natural protein, human, UniProt Q9Y5X3 1-404, looked up)
chain: MAAVPELLQQQEEDRSKLRSVSVDLNVDPSLQIDIPDALSERDKVKFTVHTKTTLPTFQSPEFSVTRQHEDFVWLHDTLIETTDYAGLIIPPAPTKPDFDGPREKMQKLGEGEGSMTKEEFAKMKQELEAEYLAVFKKTVSSHEVFLQRLSSHPVLSKDRNFHVFLEYDQDLSVRRKNTKEMFGGFFKSVVKSADEVLFTGVKEVDDFFEQEKNFLINAYNRIKDSCVKADKATRSHKNAADDYIHTAACLHSLALEEPTVIKKYLLKVAELFEKLRKVEGRVSSDEDLKLTELLRYYMLNIEAAKDLLYRRTKALIDYENSNKALDKARLKSKDVKLAEAHQQECCQKFEQLSESAKEELINFKRKAVAAFRKNLIEMSELEIKHARNNVSLLQSCIDLFKNN
notes: sorting nexin 5 (SNX5), human, four point mutations; source: E. coli BL21 (DE3), purified (glutathione Sepharose, TEV cleavage, SEC); not shown: GST, N-terminal, cleaved
B5: SNX5^FL (full-length sorting nexin 5) (natural protein, human, UniProt Q9Y5X3 1-404, looked up)
chain: B4 chain with A219Y, A233M, A240V, A368R
notes: sorting nexin 5 (SNX5), human, full length; Monomer by SEC-MALS; also called SNX5^WT; source: E. coli BL21 (DE3), purified (glutathione Sepharose, TEV cleavage, SEC); not shown: GST, N-terminal, cleaved
B6: SNX5 (6 mut)^§ (Y219A, M233A, V240A, R368A, I398A, F401A) (natural protein, human, UniProt Q9Y5X3 1-404, looked up)
chain: B4 chain with I398A, F401A
notes: sorting nexin 5 (SNX5), human, six point mutations; source: E. coli BL21 (DE3), purified (glutathione Sepharose, TEV cleavage, SEC); not shown: GST, N-terminal, cleaved

Tests used:
Details in all cases: both partners purified
[1] = molecular target: T2, ESCPE-1 (SNX1^FL–SNX5^FL heterodimer) (human, UniProt Q13596 1-522; Q9Y5X3 1-404); assay: ITC; 25 °C, 300 mM NaCl, 0.5 mM TCEP, 25 mM HEPES pH 7.5; CI-MPR in the syringe (SNX1^PX in the syringe for its test with the peptide); one-site model
T2 construct: sorting nexin 1 (SNX1), human, full length; sorting nexin 5 (SNX5), human, full length; Single heterodimer by SEC-MALS; The GST tag is called cleavable; also called SNX1–SNX5; SNX1^WT-SNX5^WT; source: E. coli BL21 (DE3), pellets mixed and lysed together, purified (glutathione Sepharose, Ni-NTA, SENP2, ion exchange, SEC); not shown: His6-SUMO3, N-terminal, cleaved; copies: 1 + 1

[2] = molecular target: B5; assay: as above
[3] = molecular target: T2, ESCPE-1 (SNX1^FL–SNX5^FL heterodimer); assay: liposome flotation; CI-MPR_(2330–2491) cross-linked by its N-terminal cysteine to DSPE-Mal (1–6%) on liposomes without phosphoinositides; SNXs incubated 1 h at 4 °C in buffer G; sucrose gradient, floated fraction on SDS-PAGE
[4] = molecular target: B5; assay: as above
[5] = molecular target: T1, SNX5^PX (PX domain of SNX5); assay: ITC; 25 °C, 300 mM NaCl, 0.5 mM TCEP, 25 mM HEPES pH 7.5; 445 µM CI-MPR_(2347–2375) peptide titrated into a mix of 100 µM SNX1^BAR and 20 µM SNX5^PX; one-site model
[6] = molecular target: T1, SNX5^PX (PX domain of SNX5); assay: ITC; 25 °C, 300 mM NaCl, 0.5 mM TCEP, 25 mM HEPES pH 7.5; CI-MPR in the syringe (SNX1^PX in the syringe for its test with the peptide); one-site model
[7] = molecular target: T3, SNX1^BAR–SNX5^FL heterodimer (human, UniProt Q13596 301-522; Q9Y5X3 1-404); assay: as above
T3 construct: BAR domain of SNX1, human; sorting nexin 5 (SNX5), human, full length; also called SNX1^BAR–SNX5 partial heterodimer; source: E. coli BL21 (DE3), purified as for SNX1^FL–SNX5^FL; not shown: His6-SUMO3, N-terminal, cleaved; copies: 1 + 1

His-SUMO-SNX1 (2× mut)^† = molecular target: T4, His-SUMO-SNX1 (2× mut)^† (human, UniProt Q13596 1-522, F347A | W511A); assay: pull-down; 5 µM His-SUMO-SNX1 or mutant held on Ni-NTA beads, 10 µM SNX5 or mutant; 1 h at 4 °C in 150 mM NaCl, 10 mM imidazole, 0.5 mM TCEP, 10 mM HEPES pH 7.5; Coomassie-stained SDS-PAGE
T4 construct: sorting nexin 1 (SNX1), human, full length, double mutant; Bait of the Ni-NTA pull-down; source: E. coli BL21 (DE3), purified (tag-removal step omitted); not shown: His6-SUMO3, N-terminal, kept

His-SUMO-SNX1 = molecular target: T5, His-SUMO-SNX1 (human, UniProt Q13596 1-522); assay: as above
T5 construct: sorting nexin 1 (SNX1), human, full length; Bait of the Ni-NTA pull-down; also called wild-type (WT) SNX1; source: E. coli BL21 (DE3), purified (tag-removal step omitted); not shown: His6-SUMO3, N-terminal, kept

[8] = molecular target: T6, SNX1^FL (full-length sorting nexin 1) (human, UniProt Q13596 1-522); assay: SEC-MALS; 100 μl of protein at 1 mg ml^−1 in 150 mM NaCl, 0.5 mM TCEP, 10 mM HEPES pH 7.5; Superdex 200 Increase 10/300 GL
T6 construct: sorting nexin 1 (SNX1), human, full length; Homodimer by SEC-MALS; also called SNX1 WT; source: E. coli BL21 (DE3), purified (Ni-NTA, SENP2 tag cleavage, ion exchange, SEC); not shown: His6-SUMO3, N-terminal, cleaved
T6 sequence (Q13596 whole entry): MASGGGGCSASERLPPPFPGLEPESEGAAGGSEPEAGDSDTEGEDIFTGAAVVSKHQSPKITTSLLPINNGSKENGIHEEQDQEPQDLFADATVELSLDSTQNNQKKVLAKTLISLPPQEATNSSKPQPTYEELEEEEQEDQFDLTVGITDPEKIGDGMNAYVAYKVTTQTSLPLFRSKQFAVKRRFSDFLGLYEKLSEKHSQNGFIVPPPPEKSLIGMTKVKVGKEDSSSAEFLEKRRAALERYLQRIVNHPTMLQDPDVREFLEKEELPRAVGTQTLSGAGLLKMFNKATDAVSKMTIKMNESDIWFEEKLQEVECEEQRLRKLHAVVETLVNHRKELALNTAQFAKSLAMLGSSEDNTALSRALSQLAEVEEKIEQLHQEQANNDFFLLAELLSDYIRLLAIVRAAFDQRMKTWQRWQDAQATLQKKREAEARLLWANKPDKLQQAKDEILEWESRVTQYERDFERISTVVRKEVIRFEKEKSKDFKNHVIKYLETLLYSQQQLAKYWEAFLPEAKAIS

T5 sequence (Q13596 whole entry): as above
T2 sequence (Q13596 whole entry, one chain of several): as the sequence (Q13596 whole entry) above
T4 sequence (Q13596 whole entry F347A/W511A): as the sequence (Q13596 whole entry) above, with F347A, W511A counted along it
T3 sequence (Q13596 301-522, chain 1 of 2): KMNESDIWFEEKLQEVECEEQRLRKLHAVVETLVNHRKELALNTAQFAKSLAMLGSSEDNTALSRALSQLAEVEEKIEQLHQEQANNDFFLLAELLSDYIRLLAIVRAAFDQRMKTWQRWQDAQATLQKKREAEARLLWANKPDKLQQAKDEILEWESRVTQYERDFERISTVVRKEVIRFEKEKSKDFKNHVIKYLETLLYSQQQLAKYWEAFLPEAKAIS
T3 sequence (Q9Y5X3 whole entry, chain 2 of 2, the tested form may be a part): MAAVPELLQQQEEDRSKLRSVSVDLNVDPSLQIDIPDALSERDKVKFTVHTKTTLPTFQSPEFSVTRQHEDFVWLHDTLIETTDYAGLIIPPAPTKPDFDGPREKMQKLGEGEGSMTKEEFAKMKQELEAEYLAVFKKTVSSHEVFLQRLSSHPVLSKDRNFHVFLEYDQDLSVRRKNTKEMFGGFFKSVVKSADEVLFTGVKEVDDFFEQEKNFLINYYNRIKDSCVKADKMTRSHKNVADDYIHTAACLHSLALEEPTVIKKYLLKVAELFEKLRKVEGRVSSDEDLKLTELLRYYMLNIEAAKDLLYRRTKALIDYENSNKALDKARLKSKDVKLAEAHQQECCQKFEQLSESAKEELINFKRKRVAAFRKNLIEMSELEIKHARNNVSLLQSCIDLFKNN

Row | Binder | Kd [1] | binding result (His-SUMO-SNX1 (2× mut)^†) | binding result (His-SUMO-SNX1) | further results
1 | B1 | 2600 nM |  |  | Kd [2]: ~8800 nM
2 | B2 |  |  |  | binding result [3]: binds; binding result [4]: binds
3 | B3 | 1500 nM |  |  | KD into a mixture of SNX5^PX and SNX1^BAR [5]: ~3200 nM; Kd [6]: ~8000 nM; Kd [7]: ~1900 nM
4 | B4 |  | binds | binds | 
5 | B5 |  | binds | binds | binding result [8]: binds
6 | B6 |  |  | binds | 
